Source: publication PMC10474468

Experiments:
[1] = molecular target: Trichomonas vaginalis riboside hydrolase (TvRH), His6 tag removed (Trichomonas vaginalis) (UniProt A2FTT0); assay: SEC
purified protein [2] = substrate: O=c1ccn([C@@H]2O[C@H](CO)[C@@H](O)[C@H]2O)c(=O)[nH]1; assay: purified protein; settings: Ca2+ active site (modeled only)
purified protein [3] = substrate: O=[N+]([O-])c1ccc(O[C@@H]2O[C@H](CO)[C@@H](O)[C@H]2O)cc1; assay: purified protein; settings: Ca2+
purified protein [4] = substrate: NC(=O)c1ccc[n+]([C@@H]2O[C@H](CO)[C@@H](O)[C@H]2O)c1; assay: purified protein; settings: Ca2+ active site (modeled only); pH 6.5; 37.0 °C
purified protein [5] = substrate: Nc1ccn([C@@H]2O[C@H](CO)[C@@H](O)[C@H]2O)c(=O)n1; assay: purified protein; settings: Ca2+
purified protein [6] = substrate: O=c1[nH]c(=O)n([C@@H]2O[C@H](CO)[C@@H](O)[C@H]2O)cc1Br; assay: purified protein; settings: Ca2+
purified protein [7] = substrate: O=c1[nH]c(=O)n([C@@H]2O[C@H](CO)[C@@H](O)[C@H]2O)cc1F; assay: purified protein; settings: Ca2+
purified protein [8] = substrate: O=c1[nH]c(=O)n([C@@H]2O[C@H](CO)[C@@H](O)[C@H]2O)cc1Cl; assay: purified protein; settings: Ca2+

Trichomonas vaginalis riboside hydrolase (TvRH), His6 tag removed (from UniProt A2FTT0 1-347) (enzyme)
stoichiometry N [1]: 4

B1: TvRH (riboside hydrolase, TVAG_092730) (Trichomonas vaginalis G3) (protein)
chain: MSIKCALDCDPGHDDLAMIMLAVYSPKLDVQYISTTHGNQTVNKTYQNARRTLNLIKRADKIPVYRGYSKPLTRESVACPEIHGESGLGGVDWSEIDRTMPRNPALDILGYKDESELRPDDFFKHLHRLVSAAEDKFDIISTGSETNIAQYLLAYPEDAKKIRMTTMAGNFMIVGNIMPFAEFNVLIDPEAISNILQSGVDYTFAAPLDITHTVLVTEKVINDIKAATEPYSPKFTEMIIKLLFFFKDTYRDVFGFIDPPLHDPVAAFHLIAPEWFEHVRCHVDIETKGEYTYGCCCTNLILKKKDPTKIVKPDNATVCLKLKEGGHDAFWNQMITVWGEIAKEIGK
Km (purified protein [2]): 39 µM | kcat (purified protein [2]): 9.3 ± 0.27 s⁻¹ | kcat/Km (purified protein [2]): 240000 M⁻¹ s⁻¹ | Km (purified protein [3]): 13 µM | kcat (purified protein [3]): 391 ± 2 s⁻¹ | kcat/Km (purified protein [3]): 3e+07 M⁻¹ s⁻¹ | Km (purified protein [4]): 99.1 µM | kcat (purified protein [4]): 10.9 ± 0.24 s⁻¹ | kcat/Km (purified protein [4]): 110000 M⁻¹ s⁻¹ | Km (purified protein [5]): 33 µM | kcat (purified protein [5]): 0.19 ± 0.003 s⁻¹ | kcat/Km (purified protein [5]): 5700 M⁻¹ s⁻¹ | Km (purified protein [6]): 20 µM | kcat (purified protein [6]): 2.1 ± 0.1 s⁻¹ | kcat/Km (purified protein [6]): 100000 M⁻¹ s⁻¹ | Km (purified protein [7]): 17 µM | kcat (purified protein [7]): 12.6 ± 0.6 s⁻¹ | kcat/Km (purified protein [7]): 770000 M⁻¹ s⁻¹ | Km (purified protein [8]): 11 µM | kcat (purified protein [8]): 2.3 ± 0.1 s⁻¹ | kcat/Km (purified protein [8]): 210000 M⁻¹ s⁻¹
